What was measured:
[1] = biological target: T1, human EphA3 extracellular region-SEAP-His protein (human, UniProt P29320 21-541); assay: ELISA
T1 construct: extracellular domain; also called hEphA3-SEAP-His
T1 sequence (looked up): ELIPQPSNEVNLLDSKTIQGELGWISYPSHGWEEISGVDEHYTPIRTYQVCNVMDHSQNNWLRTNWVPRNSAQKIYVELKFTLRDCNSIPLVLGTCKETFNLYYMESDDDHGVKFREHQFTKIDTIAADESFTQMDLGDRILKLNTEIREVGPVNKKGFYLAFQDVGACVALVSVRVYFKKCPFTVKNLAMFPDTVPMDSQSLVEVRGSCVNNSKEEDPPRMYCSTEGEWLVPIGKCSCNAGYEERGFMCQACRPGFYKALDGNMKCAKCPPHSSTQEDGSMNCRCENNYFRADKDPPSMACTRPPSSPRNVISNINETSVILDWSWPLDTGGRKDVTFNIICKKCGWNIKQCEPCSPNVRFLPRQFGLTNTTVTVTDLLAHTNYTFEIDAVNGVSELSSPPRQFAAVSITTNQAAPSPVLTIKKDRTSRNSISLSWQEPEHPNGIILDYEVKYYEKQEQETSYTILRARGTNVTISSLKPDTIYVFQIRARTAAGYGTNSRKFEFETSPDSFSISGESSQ

[2] = biological target: T2, human EphB4 extracellular region-SEAP-His protein (human, UniProt P54760 16-539); assay: ELISA
T2 construct: extracellular domain; also called hEphB4-SEAP-His
T2 sequence (looked up): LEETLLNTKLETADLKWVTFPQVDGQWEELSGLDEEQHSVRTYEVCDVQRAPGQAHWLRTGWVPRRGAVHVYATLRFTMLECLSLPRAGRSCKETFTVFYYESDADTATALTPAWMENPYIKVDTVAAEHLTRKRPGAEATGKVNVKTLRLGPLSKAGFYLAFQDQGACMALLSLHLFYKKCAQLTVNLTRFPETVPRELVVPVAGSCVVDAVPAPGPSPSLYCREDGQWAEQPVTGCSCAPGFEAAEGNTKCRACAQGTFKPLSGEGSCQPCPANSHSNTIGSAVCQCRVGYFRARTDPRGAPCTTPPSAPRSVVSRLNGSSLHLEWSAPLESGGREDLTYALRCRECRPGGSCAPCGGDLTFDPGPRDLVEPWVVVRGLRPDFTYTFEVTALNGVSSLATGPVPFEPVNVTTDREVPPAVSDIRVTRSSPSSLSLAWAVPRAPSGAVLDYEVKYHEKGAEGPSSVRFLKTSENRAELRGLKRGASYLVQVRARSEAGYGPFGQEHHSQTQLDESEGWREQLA

| Binder | A450 as % of hEphA4-SEAP-His [1] | A450 as % of hEphA4-SEAP-His [2] |
| --- | --- | --- |
| humanized antibody No. 141 (antibody, human IgG2, human Ig kappa; also called L1-4/HK1) heavy: QVQLVQSGSELKKPGASVKVSCKASGYTFTDYSMHWVRQAPGQGLEWMGWINTETGEPTYADDFKGRFVFSLDTSVSTAYLQISSLKAEDTAVYYCARIPLYYYGSRYWYFDVWGQGTTVTVSSASTKGPSVFPLAPSSRSTSESTAALGCLVKDYFPEPVTVSWNSGALTSGVHTFPAVLQSSGLYSLSSVVTVPSSNFGTQTYTCNVDHKPSNTKVDKTVERKSCVECPPCPAPPAAAPSVFLFPPKPKDTLMISRTPEVTCVVVDVSHEDPEVQFNWYVDGVEVHNAKTKPREEQFNSTFRVVSVLTVVHQDWLNGKEYKCKVSNKGLPAPIEKTISKTKGQPREPQVYTLPPSREEMTKNQVSLTCLVKGFYPSDIAVEWESNGQPENNYKTTPPMLDSDGSFFLYSKLTVDKSRWQQGNVFSCSVMHEALHNHYTQKSLSLSPG light: DIQMTQSPSSLSASVGDRVTITCRASENIYRNLAWYQQKPGKAPKLLVYAATNLADGVPSRFSGSGSGTDYTLTISSLQPEDFATYYCQHFWGTPWTFGQGTKVEIKRTVAAPSVFIFPPSDEQLKSGTASVVCLLNNFYPREAKVQWKVDNALQSGNSQESVTEQDSKDSTYSLSSTLTLSKADYEKHKVYACEVTHQGLSSPVTKSFNRGEC | 5.3% | 5.4% |
| humanized antibody No. 144 (antibody, human IgG2, human Ig kappa; also called L1-6/HK1) heavy: QVQLVQSGSELKKPGASVKVSCKASGYTFTDYSMHWVRQAPGQGLEWMGWINTETGEPTYADDFKGRFVFSLDTSVSTAYLQISSLKAEDTAVYYCARIPLYYYGSRYWYFDVWGQGTTVTVSSASTKGPSVFPLAPSSRSTSESTAALGCLVKDYFPEPVTVSWNSGALTSGVHTFPAVLQSSGLYSLSSVVTVPSSNFGTQTYTCNVDHKPSNTKVDKTVERKSCVECPPCPAPPAAAPSVFLFPPKPKDTLMISRTPEVTCVVVDVSHEDPEVQFNWYVDGVEVHNAKTKPREEQFNSTFRVVSVLTVVHQDWLNGKEYKCKVSNKGLPAPIEKTISKTKGQPREPQVYTLPPSREEMTKNQVSLTCLVKGFYPSDIAVEWESNGQPENNYKTTPPMLDSDGSFFLYSKLTVDKSRWQQGNVFSCSVMHEALHNHYTQKSLSLSPG light: DIQMTQSPSSLSASVGDRVTITCRASENIYRNLAWYQQKPGKAPQLLLYAATNLADGVPSRFSGSGSGTDYTLTISSLQPEDFATYYCQHFWGTPWTFGQGTKVEIKRTVAAPSVFIFPPSDEQLKSGTASVVCLLNNFYPREAKVQWKVDNALQSGNSQESVTEQDSKDSTYSLSSTLTLSKADYEKHKVYACEVTHQGLSSPVTKSFNRGEC | 5.7% | 5.7% |
| humanized antibody No. 145 (antibody, human IgG2, human Ig kappa; also called L1-5/HK2) heavy: QVQLVQSGSELKKPGASVKVSCKASGYTFTDYSMHWVRQAPGQGLKWMGWINTETGEPTYADDFKGRFVFSLDTSVSTAYLQISSLKAEDTAVYYCARIPLYYYGSRYWYFDVWGQGTTVTVSSASTKGPSVFPLAPSSRSTSESTAALGCLVKDYFPEPVTVSWNSGALTSGVHTFPAVLQSSGLYSLSSVVTVPSSNFGTQTYTCNVDHKPSNTKVDKTVERKSCVECPPCPAPPAAAPSVFLFPPKPKDTLMISRTPEVTCVVVDVSHEDPEVQFNWYVDGVEVHNAKTKPREEQFNSTFRVVSVLTVVHQDWLNGKEYKCKVSNKGLPAPIEKTISKTKGQPREPQVYTLPPSREEMTKNQVSLTCLVKGFYPSDIAVEWESNGQPENNYKTTPPMLDSDGSFFLYSKLTVDKSRWQQGNVFSCSVMHEALHNHYTQKSLSLSPG light: DIQMTQSPSSLSASVGDRVTITCRASENIYRNLAWYQQKPGKAPKLLLYAATNLADGVPSRFSGSGSGTDYTLTISSLQSEDFATYYCQHFWGTPWTFGQGTKVEIKRTVAAPSVFIFPPSDEQLKSGTASVVCLLNNFYPREAKVQWKVDNALQSGNSQESVTEQDSKDSTYSLSSTLTLSKADYEKHKVYACEVTHQGLSSPVTKSFNRGEC | 6.6% | 6.7% |
| humanized antibody No. 143 (antibody, human IgG2, human Ig kappa; also called L1-4/HK4) heavy: QIQLVQSGSELKKPGASVKVSCKASGYTFTDYSMHWVRQAPGQGLKWMGWINTETGEPTYADDFKGRFVFSLDTSVSTAYLQISSLKAEDTAVYYCARIPLYYYGSRYWYFDVWGQGTTVTVSSASTKGPSVFPLAPSSRSTSESTAALGCLVKDYFPEPVTVSWNSGALTSGVHTFPAVLQSSGLYSLSSVVTVPSSNFGTQTYTCNVDHKPSNTKVDKTVERKSCVECPPCPAPPAAAPSVFLFPPKPKDTLMISRTPEVTCVVVDVSHEDPEVQFNWYVDGVEVHNAKTKPREEQFNSTFRVVSVLTVVHQDWLNGKEYKCKVSNKGLPAPIEKTISKTKGQPREPQVYTLPPSREEMTKNQVSLTCLVKGFYPSDIAVEWESNGQPENNYKTTPPMLDSDGSFFLYSKLTVDKSRWQQGNVFSCSVMHEALHNHYTQKSLSLSPG light: DIQMTQSPSSLSASVGDRVTITCRASENIYRNLAWYQQKPGKAPKLLVYAATNLADGVPSRFSGSGSGTDYTLTISSLQPEDFATYYCQHFWGTPWTFGQGTKVEIKRTVAAPSVFIFPPSDEQLKSGTASVVCLLNNFYPREAKVQWKVDNALQSGNSQESVTEQDSKDSTYSLSSTLTLSKADYEKHKVYACEVTHQGLSSPVTKSFNRGEC | 5.6% | 5.9% |
| humanized antibody No. 152 (antibody, human IgG2, human Ig kappa; also called L1-5/HA1) heavy: QVQLVQSGSELKKPGASVKVSCKASGYTFTDYSMHWVRQAPGQGLEWMGWINTETGEPTYAQGFTGRFVFSLDTSVSTAYLQISSLKAEDTAVYYCARIPLYYYGSRYWYFDVWGQGTTVTVSSASTKGPSVFPLAPSSRSTSESTAALGCLVKDYFPEPVTVSWNSGALTSGVHTFPAVLQSSGLYSLSSVVTVPSSNFGTQTYTCNVDHKPSNTKVDKTVERKSCVECPPCPAPPAAAPSVFLFPPKPKDTLMISRTPEVTCVVVDVSHEDPEVQFNWYVDGVEVHNAKTKPREEQFNSTFRVVSVLTVVHQDWLNGKEYKCKVSNKGLPAPIEKTISKTKGQPREPQVYTLPPSREEMTKNQVSLTCLVKGFYPSDIAVEWESNGQPENNYKTTPPMLDSDGSFFLYSKLTVDKSRWQQGNVFSCSVMHEALHNHYTQKSLSLSPG light: DIQMTQSPSSLSASVGDRVTITCRASENIYRNLAWYQQKPGKAPKLLLYAATNLADGVPSRFSGSGSGTDYTLTISSLQSEDFATYYCQHFWGTPWTFGQGTKVEIKRTVAAPSVFIFPPSDEQLKSGTASVVCLLNNFYPREAKVQWKVDNALQSGNSQESVTEQDSKDSTYSLSSTLTLSKADYEKHKVYACEVTHQGLSSPVTKSFNRGEC | 5.8% | 5.9% |
| humanized antibody No. 151 (antibody, human IgG2, human Ig kappa; also called L1-5/HA4) heavy: QIQLVQSGSELKKPGASVKVSCKASGYTFTDYSMHWVRQAPGQGLKWMGWINTETGEPTYAQGFTGRFVFSLDTSVSTAYLQISSLKAEDTAVYYCARIPLYYYGSRYWYFDVWGQGTTVTVSSASTKGPSVFPLAPSSRSTSESTAALGCLVKDYFPEPVTVSWNSGALTSGVHTFPAVLQSSGLYSLSSVVTVPSSNFGTQTYTCNVDHKPSNTKVDKTVERKSCVECPPCPAPPAAAPSVFLFPPKPKDTLMISRTPEVTCVVVDVSHEDPEVQFNWYVDGVEVHNAKTKPREEQFNSTFRVVSVLTVVHQDWLNGKEYKCKVSNKGLPAPIEKTISKTKGQPREPQVYTLPPSREEMTKNQVSLTCLVKGFYPSDIAVEWESNGQPENNYKTTPPMLDSDGSFFLYSKLTVDKSRWQQGNVFSCSVMHEALHNHYTQKSLSLSPG light: DIQMTQSPSSLSASVGDRVTITCRASENIYRNLAWYQQKPGKAPKLLLYAATNLADGVPSRFSGSGSGTDYTLTISSLQSEDFATYYCQHFWGTPWTFGQGTKVEIKRTVAAPSVFIFPPSDEQLKSGTASVVCLLNNFYPREAKVQWKVDNALQSGNSQESVTEQDSKDSTYSLSSTLTLSKADYEKHKVYACEVTHQGLSSPVTKSFNRGEC | 6.9% | 7.4% |
| humanized antibody No. 142 (antibody, human IgG2, human Ig kappa; also called L1-4/HK2) heavy: QVQLVQSGSELKKPGASVKVSCKASGYTFTDYSMHWVRQAPGQGLKWMGWINTETGEPTYADDFKGRFVFSLDTSVSTAYLQISSLKAEDTAVYYCARIPLYYYGSRYWYFDVWGQGTTVTVSSASTKGPSVFPLAPSSRSTSESTAALGCLVKDYFPEPVTVSWNSGALTSGVHTFPAVLQSSGLYSLSSVVTVPSSNFGTQTYTCNVDHKPSNTKVDKTVERKSCVECPPCPAPPAAAPSVFLFPPKPKDTLMISRTPEVTCVVVDVSHEDPEVQFNWYVDGVEVHNAKTKPREEQFNSTFRVVSVLTVVHQDWLNGKEYKCKVSNKGLPAPIEKTISKTKGQPREPQVYTLPPSREEMTKNQVSLTCLVKGFYPSDIAVEWESNGQPENNYKTTPPMLDSDGSFFLYSKLTVDKSRWQQGNVFSCSVMHEALHNHYTQKSLSLSPG light: DIQMTQSPSSLSASVGDRVTITCRASENIYRNLAWYQQKPGKAPKLLVYAATNLADGVPSRFSGSGSGTDYTLTISSLQPEDFATYYCQHFWGTPWTFGQGTKVEIKRTVAAPSVFIFPPSDEQLKSGTASVVCLLNNFYPREAKVQWKVDNALQSGNSQESVTEQDSKDSTYSLSSTLTLSKADYEKHKVYACEVTHQGLSSPVTKSFNRGEC | 5.5% | 5.7% |

Reference: patent US20190077860A1 (EISAI R AND D MANAGEMENT, published 2019)
